Experimental findings from paper PMC6821365 are described below.

Assay in all cases: ITC
The target of one data set is T1, yedK T149A (Escherichia coli (gene from BL21 …, UniProt P76318 2-222, T149A)).
T1 sequence: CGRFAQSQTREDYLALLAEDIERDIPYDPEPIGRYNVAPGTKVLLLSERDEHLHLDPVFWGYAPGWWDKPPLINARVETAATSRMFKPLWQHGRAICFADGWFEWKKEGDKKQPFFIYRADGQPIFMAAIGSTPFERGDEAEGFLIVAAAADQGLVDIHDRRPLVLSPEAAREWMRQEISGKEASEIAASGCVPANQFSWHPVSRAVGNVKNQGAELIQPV

The next data set deals with T2, yedK T80A (Escherichia coli (gene from BL21 …, UniProt P76318 2-222, T80A)).
T2 sequence: T1 sequence with T79A, A148T

A further data set concerns the target T3, yedK E105A (Escherichia coli (gene from BL21 …, UniProt P76318 2-222, E105A)).
T3 sequence: T1 sequence with E104A, A148T

A further data set addresses T4, yedK R85A (Escherichia coli (gene from BL21 …, UniProt P76318 2-222, R85A)).
T4 sequence: T1 sequence with R84A, A148T

The target of a further data set is T5, yedK W68A (Escherichia coli (gene from BL21 …, UniProt P76318 2-222, W68A)).
T5 sequence: T1 sequence with W67A, A148T

The next data set concerns the target T6, yedK W67A (Escherichia coli (gene from BL21 …, UniProt P76318 2-222, W67A)).
T6 sequence: T1 sequence with W66A, A148T

A further data set addresses T7, yedK R162A (Escherichia coli (gene from BL21 …, UniProt P76318 2-222, R162A)).
T7 sequence: T1 sequence with A148T, R161A

The target of the next data set is T8, yedK P40G (Escherichia coli (gene from BL21 …, UniProt P76318 2-222, P40G)).
T8 sequence: T1 sequence with P39G, A148T

Substitutions are numbered along the chain they refer to.

B1: ssDNA (ssDNA)
DNA: CGGTCGATTC
Consider B1, for which the binding result with yedK T149A, with yedK W68A, with yedK W67A and with yedK R162A was “no binding” in each case. In addition, the Kd with yedK T80A was 12.6 µM; with yedK E105A it was 0.12 µM; with yedK R85A it was 16.9 µM; in the data set with yedK P40G it was 10.8 µM.
